From ChEMBL document CHEMBL1130869, “Peptide-based inhibitors of the hepatitis C virus serine protease” (Bioorg Med Chem Lett, 1998)

Substrate: CC[C@H](C)[C@H](NC(=O)[C@H](CC(=O)O)NC(=O)[C@@H](N)CC(=O)O)C(=O)N[C@H](C(=O)N1CCC[C@H]1C(=O)N[C@@H](CS)C(=O)O)C(C)C
Assay: Km against NS3-4Apep protease determined by non-linear regression analysis of the velocity data
Assay type: protein-complex assay
Details: Hepacivirus hominis

B1: Hepatitis C virus serine protease, NS3/NS4A (Hepatitis C virus), D2K2A8+A3EZI9 (protein)
chain 1: STWVLLGGVLAALAAYCLSVGCVVIVGYIELGGKPALVPDKEVCYQQYDEMEEC
chain 2: APITAYAQQTRGLLGCIITSLTGRDKNQVEGEVQIVSTAAQTFLATCINGVCWTVYHGAGTRTIASSKGPVIQMYTNVDQDLVGWPAPQGARSLTPCTCGSSDLYLVTRHADVIPVRRRGDGRGSLLSPRPISYLKGSSGGPLLCPAGHAVGIFRAAVCTRGVAKAVDFIPVEGLETTMRSPVFSDNSSPPAVPQSYQVAHLHAPTGSGKSTKVPAAYAAQGYKVLVLNPSVAATLGFGAYMSKAHGIDPNIRTGVRTITTGSPITYSTYGKFLADGGCSGGAYDIIICDECHSTDATSILGIGTVLDQAETAGARLTVLATATPPGSVTVPHPNIEEVALSTTGEIPFYGKAIPLEAIKGGRHLIFCHSKKKCDELAAKLVALGVNAVAYYRGLDVSVIPASGDVVVVATDALMTGFTGDFDSVIDCNTCVTQTVDFSLDPTFTIETTTLPQDAVSRTQRRGRTGRGKPGIYRFVTPGERPSGMFDSSVLCECYDAGCAWYELTPAETTVRLRAYMNTPGLPVCQDHLEFWEGVFTGLTHIDAHFLSQTKQSGENLPYLVAYQATVCARAQAPPPSWDQMWKCLIRLKPTLHGPTPLLYRLGAVQNEITLTHPITKYIMTCMSADLEVVT
Q: How did the Km turn out when B1 was run?
A: 37 µM
